# Data published in patent publication US10251952B2, “Humanized anti-tau(pS422) antibody brain shuttles and use thereof” (Hoffmann-La Roche Inc., priority 2014, dated 2019).
# Positions count from the first letter of the chain named. Read-outs that look alike come from different tables or passages of the source.
# B1: VL17 with VH01: anti-human tau(pS422) antibody; VH SEQ ID NO: 46, VL SEQ ID NO: 37 (antibody, V domains shown)
# VH: QQLVESGGGLVQPGGSLRLSCAASGFSLSSNAINWVRQAPGKGLEWVGYIAVSGNTYYASWAKGRFTISRDNSKNTLYLQMNSLRAEDTAVYYCGKSNIWGQGTLVTVSS
# VL: DIQMTQSPSSLSASVGDRVTITCRSSQSVRTNKLAWFQQKPGQPPKRLIYSASTLDFGVPSRFSGSGSGTEFTLTISSLQPEDFATYYCLGYFDCSIADCVAFGGGTKVEIK
# modifications: humanized sequence
# B2: VL17 with VH04: anti-human tau(pS422) antibody; VH SEQ ID NO: 49, VL SEQ ID NO: 37 (antibody, V domains shown)
# VH: QSVLESGGGLVQPGGSLRLSCAVSGFSLSSNAINWVRQAPGKGLEWVGYIAVSGNTYYASWAKGRFTISRDSTTLYLQMNSLRAEDTAVYYCGKSNIWGPGTLVTVSS
# VL: B1 VL
# modifications: humanized sequence
# B3: VL17 with VH03: anti-human tau(pS422) antibody; VH SEQ ID NO: 48, VL SEQ ID NO: 37 (antibody, V domains shown)
# VH: B1 VH with Q2S, L3V, V4L, A23V, Q102P
# VL: B1 VL
# modifications: humanized sequence
# B4: VL17 with VH02: anti-human tau(pS422) antibody; VH SEQ ID NO: 47, VL SEQ ID NO: 37 (antibody, V domains shown)
# VH: B1 VH with Q2S, L3V, V4L, Q102P
# VL: B1 VL
# modifications: humanized sequence
# B5: VL17 with VH15: anti-human tau(pS422) antibody; VH SEQ ID NO: 51, VL SEQ ID NO: 37 (antibody, V domains shown)
# VH: B1 VH with Q2S, L3V, Q102P
# VL: B1 VL
# modifications: humanized sequence
# B6: VH00/VL00: rabbit antibody reference (parent of humanized variants, from mAb 086); VH SEQ ID NO: 11, VL SEQ ID NO: 07 (antibody, listed as Oryctolagus cuniculus, V domains shown)
# VH: QSVEESGGRLVTPGTPLTLTCTVSGFSLSSNAINWVRQAPGKGLEWIGYIAVSGNTYYASWAKGRFTISKASTTVDLKMTSPTAEDTGTYFCGKSNIWGPGTLVTVSL
# VL: AQVLTQTTSPVSAAVGSTVTISCQSSQSVRTNKLAWFQQKPGQPPKRLIYSASTLDFGVPSRFSASGSGTQFTLTISDVQCDDAATYYCLGYFDCSIADCVAFGGGTEVVVK
# B7: VL17 with VH00: anti-human tau(pS422) antibody; VH SEQ ID NO: 11, VL SEQ ID NO: 37 (antibody, listed as Oryctolagus cuniculus, V domains shown)
# VH: B6 VH
# VL: B1 VL
# modifications: humanized sequence
# B8: VH32/VL21: humanized anti-human tau(pS422) antibody; VH SEQ ID NO: 19, VL SEQ ID NO: 16 (antibody, V domains shown)
# VH: EVQVLESGGGLVQPGGSLRLSCAVSGFSLSSNAINWVRQAPGKGLEWVGYIAVSGNTYYASWAKGRFTISRDNSKNTVYLQMNSLRAEDTAVYYCGKSNIWGQGTLVTVSS
# VL: AQVMTQSPSSLSASVGDRVTITCRSSQSVRTNKLAWFQQKPGQPPKRLIYSASTLDFGVPSRFSGSGSGTEFTLTISSLQPEDFATYYCLGYFDSSADIVAFGGGTKVEIK
# modifications: humanized sequence
# Legend:
# human tau(pS422) [1] = biological target: T1, human tau(pS422) (Homo sapiens, UniProt P10636, S739X); assay: BIAcore kinetic screening and kinetic rates of humanized VH/VL combinations; type: binding; conditions: for kd / t/2 diss: VL17 or VL19 with VH variants; for MR: molar ratio
# Method: In the following Table characteristics of the different humanized variants of the rabbit light chain variable domain in combination with the humanized heavy chain variable domains VH14 and VH20, respectively, are shown. Binding partner was human tau(pS422).
# Kinetic screening was performed according to Schraeml et al. (Schraeml, M. and M. Biehl, Methods Mol. Biol. 901 (2012) 171-181) on a BIAcore 4000 instrument, mounted with a BIAcore CM5 sensor. The BIAcore 4000 instrument was under the control of the software version V1.1. A BIAcore CM5 series S chip was mounted into the instrument and was hydrodynamically addressed and preconditioned according to the manufacturer's instructions. The instrument buffer was HBS-EP buffer (10 mM HEPES (pH 7.4), 150 mM NaCl, 1 mM EDTA, 0.05% (w/v) P20). An antibody capture system was prepared on the sensor surface. A polyclonal goat anti-human antibody with human IgG-Fc specificity (Jackson Lab.) was immobilized at 30 μg/ml in 10 mM sodium acetate buffer (pH 5) to spots 1, 2, 4 and 5 in the instrument's flow cells 1, 2, 3 and 4 at 10,000 RU using NHS/EDC chemistry. In each flow cell the antibodies were captured on spot 1 and spot 5. Spot 2 and spot 4 were used as reference spots. The sensor was deactivated with a 1 M ethanolamine solution. Humanized antibody derivatives were applied at concentrations between 44 nM and 70 nM in instrument buffer supplemented with 1 mg/ml CMD (carboxymethyldextrane). The antibodies were injected at a flow rate of 30 μl/min for 2 minutes. The capture level (CL) of the surface-presented antibodies was measured in rel. response units (RU). The analytes in solution, phosphorylated human tau protein, non-phosphorylated human tau protein and the phosphorylated human tau mutant protein T422S were injected at 300 nM for 3 minutes at a flow rate of 30 μl/minute. The dissociation was monitored for 5 minutes. The capture system was regenerated by a 1 minute injection of 10 mM glycine buffer, pH 1.7 at 30 μL/minute over all flow cells. Two report points, the recorded signal shortly before the end of the analyte injection, denoted as binding late (BL) and the recorded signal shortly before the end of the dissociation time, stability late (SL), were used to characterize the kinetic screening performance. Furthermore, the dissociation rate constant kd (1/s) was calculated according to a Langmuir model and the antibody/antigen complex half-life was calculated in minutes according to the formula ln(2)/(60*kd). The molar ratio (MR) was calculated according to the formula MR=(Binding Late (RU))/(Capture level (RU))*(MW(antibody)/(MW(antigen)). In case the sensor was configured with a suitable amount of antibody ligand capture level, each antibody should be able to functionally bind at least to one analyte in solution, which is represented by a molar ratio of MR=1.0. Then, the molar ratio is also an indicator for the valence mode of analyte binding. The maximum valence can be MR=2 for an antibody binding two analytes, one with each Fab valence.
# In another embodiment, kinetic rates were determined at 25° C. and 37° C. using the same experimental setup, but using multiple concentration series of each analyte in solution at 0 nM (buffer), 1.2 nM, 3.7 nM, 11.1 nM, 33.3 nM, 100 nM and 300 nM. From the concentration-dependent binding behavior the kinetic data was calculated using the BIAcore evaluation software according to the manufacturer's instructions and a Langmuir 1.1 model with RMAX global.
# [2] = biological target: T2, S422A tau mutant S422A SEQ ID NO: 01 (Homo sapiens, UniProt P10636, S739A); assay: ELISA binding specificity of VH/VL combinations
# T2 construct: (A)=full length human tau S422A mutant
# Method: (§1) In the following Table the binding specificity for different VH/VL combinations are shown (EC50 values in [ng/ml]).
# (§2) Non-biotinylated peptide/protein/aggregate was added to non-coated Maxisorb plates, biotinylated peptide/protein/aggregate in PBS was added to streptavidin-coated Maxisorb plates, and plates were incubated over-night. The supernatant was discarded and the wells washed three times with 90 μl wash buffer (lx PBS/0.1% Tween 20). Remaining reactive spots were blocked with blocking buffer (lx PBS/2% BSA (Bovine Serum Albumin Fraction V, fatty acid free, Roche, Cat. No.: 10735078001)/0.05% Tween 20) by incubating for one hour. The supernatant was discarded and the wells washed three times with 90 μl wash buffer. Samples and control antibody were prepared in 12 dilutions (1:2) in ELISA buffer (lx PBS/0.5% BSA (Bovine Serum Albumin Fraction V, fatty acid free, Roche, Cat. No.: 10735078001)/0.05% Tween 20) with a start concentration of 500 ng/ml. The incubation time was 60 minutes at room temperature on a shaker. The supernatant was discarded and the wells washed three times with 90 μl wash buffer. Solutions of secondary antibody were prepared in ELISA buffer. A total of 25 μl antibody-mix was transferred to all wells of the assay plate and the plate was thereafter incubated on shaker for 60 minutes at room temperature. The supernatant was discarded and the wells were washed three times with 90 μl wash buffer. 25 μl of ABTS solution was added to all wells. The absorbance was read at 405 nm-492 nm.
# [3] = biological target: full length tau(pS422) SEQ ID NO: 02 (Homo sapiens, UniProt P10636, S739X); assay: ELISA binding specificity of VH/VL combinations
# Method: as §1, §2
# [4] = biological target: T3, tau peptide residues 416 to 430 of SEQ ID NO: 01 (Homo sapiens, UniProt P10636); assay: ELISA binding specificity of VH/VL combinations
# T3 construct: 416 to 430
# Method: as §1, §2
# tau(pS422) aggregates = tau(pS422) aggregates (Homo sapiens, UniProt P10636, S739X); assay: ELISA binding specificity of VH/VL combinations
# Method: as §1, §2
# [5] = biological target: tau(pS422) fragment SEQ ID NO: 03 (Homo sapiens, UniProt P10636, S739X); assay: ELISA binding specificity of VH/VL combinations
# Method: as §1, §2
# [6] = biological target: human tau phosphorylated at S422 (Homo sapiens, UniProt P10636, S739X); assay: Western Blot selectivity of humanized VH/VL combinations; type: binding
# Description: FIG. 5 is a Western Blot showing the selectivity of selected humanized VH/VL combinations; (1)=VH00/VL00, (2)=VH32/VL21, (3)=VH20/VL22, (4)=VH32/VL22, (5)=VH33/VL22.
# The sensitivity of selected humanized VH/VL combinations to the human tau mutant S422A can be seen from the Western Blots shown in FIG. 5. All humanized variants selectively bind to human tau phosphorylated at S422.
# human tau(pS422) [7] = biological target: T1, human tau(pS422); assay: IHC grading in summary of biological properties; conditions: key not given
# Description: The following table summarizes the biological properties of selected humanized VH/VL combinations.
# [8] = summary grading 1 to 4, key not given
# T2 sequence (P10636 1-441 isoform P10636-8 S422A): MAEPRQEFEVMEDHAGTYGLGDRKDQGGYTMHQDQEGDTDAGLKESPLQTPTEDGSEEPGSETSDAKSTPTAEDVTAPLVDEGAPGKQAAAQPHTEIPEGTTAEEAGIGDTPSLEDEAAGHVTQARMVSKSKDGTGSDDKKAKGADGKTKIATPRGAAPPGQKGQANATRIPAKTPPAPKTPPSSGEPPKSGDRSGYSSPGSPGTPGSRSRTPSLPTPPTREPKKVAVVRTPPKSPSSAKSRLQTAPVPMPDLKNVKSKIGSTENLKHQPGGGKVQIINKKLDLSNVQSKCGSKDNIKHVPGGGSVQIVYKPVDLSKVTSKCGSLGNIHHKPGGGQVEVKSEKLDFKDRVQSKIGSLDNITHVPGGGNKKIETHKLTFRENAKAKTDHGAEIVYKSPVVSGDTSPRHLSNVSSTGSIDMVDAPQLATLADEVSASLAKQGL
molecule,measurement,setting,value
B1,kd,human tau(pS422) [1]; 25 °C,0.0023 s⁻¹
same,t/2 diss,human tau(pS422) [1]; 25 °C,5 min
B2,kd,human tau(pS422) [1]; 25 °C,0.00416 s⁻¹
same,t/2 diss,human tau(pS422) [1]; 25 °C,3 min
B3,kd,human tau(pS422) [1]; 25 °C,0.00393 s⁻¹
same,t/2 diss,human tau(pS422) [1]; 25 °C,3 min
B4,kd,human tau(pS422) [1]; 25 °C,0.00371 s⁻¹
same,t/2 diss,human tau(pS422) [1]; 25 °C,3 min
B5,kd,human tau(pS422) [1]; 25 °C,0.00326 s⁻¹
same,t/2 diss,human tau(pS422) [1]; 25 °C,4 min
B6,t/2diss 25° C.,human tau(pS422) [1]; 25 °C,54 min
same,Kd,"human tau(pS422) [1]; 25 °C, read-out: KD 25° C.",8 nM
same,t/2diss 37° C.,human tau(pS422) [1]; 37 °C,24 min
same,Kd,"human tau(pS422) [1]; 37 °C, read-out: KD 37° C.",12 nM
same,MR,human tau(pS422) [1]; 25 °C,0.6
same,MR,human tau(pS422) [1]; 37 °C,0.8
same,EC50 S422A tau mutant S422A SEQ ID NO: 01,[2],0.0479 µg/mL
same,EC50 full length tau(pS422) SEQ ID NO: 02,[3],5.2 ng/ml
same,EC50 tau peptide residues 416 to 430 of SEQ ID NO: 01,[4],>1 µg/mL
same,EC50 tau(pS422) aggregates,tau(pS422) aggregates,18.1 ng/ml
same,EC50 tau(pS422) fragment SEQ ID NO: 03,[5],6.3 ng/ml
same,selectivity and cross-reactivity in Western Blot,[6]; FIG. 5,low level x-reactivity to non-S422 phosphoepitopes
B7,kd,human tau(pS422) [1]; 25 °C,0.000498 s⁻¹
same,t/2 diss,human tau(pS422) [1]; 25 °C,23 min
B8,t/2diss 25° C.,human tau(pS422) [1]; 25 °C,26 min
same,Kd,"human tau(pS422) [1]; 25 °C, read-out: KD 25° C.",18 nM
same,t/2diss 37° C.,human tau(pS422) [1]; 37 °C,9 min
same,Kd,"human tau(pS422) [1]; 37 °C, read-out: KD 37° C.",32 nM
same,MR,human tau(pS422) [1]; 25 °C,0.5
same,MR,human tau(pS422) [1]; 37 °C,0.6
same,BIAcore,human tau(pS422) [1]; [8],2
same,EC50 S422A tau mutant S422A SEQ ID NO: 01,[2],0.0215 µg/mL
same,EC50 full length tau(pS422) SEQ ID NO: 02,[3],2.9 ng/ml
same,EC50 tau peptide residues 416 to 430 of SEQ ID NO: 01,[4],0.634 µg/mL
same,EC50 tau(pS422) aggregates,tau(pS422) aggregates,9.4 ng/ml
same,EC50 tau(pS422) fragment SEQ ID NO: 03,[5],4.4 ng/ml
same,WB,[6]; [8],2
same,IHC,human tau(pS422) [7],3
